# Test results published in US20050032744A1.
# How the values were obtained:
# [1] = biological target: adenylyl cyclase (AC) in rat dorsal root ganglia (DRG) lysates (rat); test: cell-based or functional assay
# [2] = biological target: adenylyl cyclase (AC) in rat spinal cord lysates / membrane preparations (rat); test: cell-based or functional assay
substance,measurement,setting,value
"Protein Associated with Myc (PAM), human, full length, purified from HeLa cells (from UniProt O75592 1-4678)","inhibition of Gαs-stimulated AC activity, DRG lysates, 30 nM PAM",[1],32%
same,"inhibition of Gαs-stimulated AC activity, spinal cord lysates of animals treated for 1 hour with formalin, 30 nM PAM",[2],25%
same,"inhibition of Gαs-stimulated AC activity, spinal cord lysates of control animals, 30 nM PAM",[2],49%
same,"inhibition of Gαs-stimulated AC activity, spinal cord lysates of rats 96 hours after zymosan injection, 30 nM PAM",[2],70%
